In patent publication US20110076723A1, “ANTIBODY-PEPTIDE FUSED SYNERGIBODY” (SAMSUNG ELECTRONICS CO., LTD., priority 2008, published 2011):

Each molecule was assayed on HUVEC (assay: Cell-based functional assay, endothelial cell tube formation (BD BioCoat Angiogenesis System)). Conditions: 5 μM fused protein synergibody, 18 hours; unrelated control group 12,227 ± 1,232.
Design: species or system human
Protocol: Chimeric antibodies may be screened by functional assays such as cell-based assay for inhibition activity. In this example, BD BioCoat™ Angiogenesis System-Endothelial Cell Tube Formation (BD Biosciences) is used. BD Falcon 96-well Black/Clear plate coated with BD Matrigel Matrix that had been stored at −20° C. is slowly melted at 4° C. for 6 hours, and the mat cover of the plate is removed inside a sterile clean bench. Then it is left at 37° C. , 5% CO2 for 30 minutes so that the Matrigel™ Matrix would form polymers. Then it is made into a suspension by treating HUVEC, cultured on a petridish containing EGM-2 MV (Lonza) medium added with 10% fetal bovine serum to 70 to 80% confluence, with 0.5% Trypsin-EDTA (Gibco). Then it is resuspended in a culture medium containing 10% fetal bovine serum to a cell concentration of 4×10^5 cells/ml. At this time, 5 μM of each anti-Ang-2 chimeric antibodies expressed and purified in Section 5 above are also added and resuspended. Then 50 μl (about 2×10^4 cells) of each of the suspension is added to each well of the plate and incubated at 37° C. , 5% CO2 for 18 hours. Then the medium is removed and each well is washed twice with 100 μl of Hanks' balanced salt solution (HBSS, Invitrogen) ensuring that the tubes of the cells formed on BD Matrigel™ Matrix are not damaged. 50 μl of calcein AM (BD sciences) dissolved in HBSS at the concentration of 8 μg/ml is added to each well. The plate is then left to react at 37° C., 5% CO2 for 30 minutes and the calcein AM (BD sciences) solution is removed and washed twice with HBSS. Lastly, an image of the length of the entire tube of HUVEC formed on BD Matrigel™ Matrix is obtained on a fluorescent microscope and analyzed by using MetaMorph® software (Universal Imaging Corporation™, http://www.moleculardevices.com).
The peptides synthesized in Section 6A above are screened by cell-based functional assay for inhibition activity. The method described in Example 1, Section 7 is used, except that 5 μM synthesized peptides are added instead of anti-Ang-2 antibodies.
The fused protein synergibodies prepared in Section 1 above are screened using cell-based functional assay for inhibition activity. The method described in Example 1, Section 7 is used, except that, in this example, 5 μM of fused protein synergibodies are added instead of anti-Ang-2 antibodies.

| Molecule | Length of entire tube of HUVEC (2 × 10^4 cells) (pixels) |
| --- | --- |
| Syn-Ang-VEGFR-6: fused protein synergibody SAITAng-2-2 × DTN6VEGFR-2-1, peptide at C-terminal of heavy chain (protein, left off: a dimerising Fc or GST, fused protein synergibody SAITAng-2-2 × DTN6VEGFR-2-1, peptide at C-terminal of heavy chain) heavy (part 1 of 2): QVQLQQSGPELVKPGASVKMSCKASGYTFTDYVISWVKQRTGQGLEWIGEIYPGSGSTYYNEKFKGKASLTADKSSNTAYMQLSSLTSADSAVYFCVRSRGDYYAMDYWGQGTSVTVSS heavy (part 2 of 2): TGSDDLCYTFPCMHY light: DIQMTQSPSSLSASLGGKVTITCKASQDINNYITWYQHKPGKGPRLLIHYTSTLQPGIPSRFSGSGSGRDYSFSISNLEPEDIATYYCLQYDNLLTFGGGTKLEIK | 6,157 ± 1,141 pixels |
| Syn-Ang-VEGFR-7: fused protein synergibody SAITAng-2-2 × DTN8VEGFR-2-2, peptide at C-terminal of heavy chain (protein, left off: a dimerising Fc or GST, fused protein synergibody SAITAng-2-2 × DTN8VEGFR-2-2, peptide at C-terminal of heavy chain) heavy (part 1 of 2): QVQLQQSGPELVKPGASVKMSCKASGYTFTDYVISWVKQRTGQGLEWIGEIYPGSGSTYYNEKFKGKASLTADKSSNTAYMQLSSLTSADSAVYFCVRSRGDYYAMDYWGQGTSVTVSS heavy (part 2 of 2): EAGKETCGYEWQYCPRP light: DIQMTQSPSSLSASLGGKVTITCKASQDINNYITWYQHKPGKGPRLLIHYTSTLQPGIPSRFSGSGSGRDYSFSISNLEPEDIATYYCLQYDNLLTFGGGTKLEIK | 5,935 ± 995 pixels |
| Syn-Ang-VEGFR-8: fused protein synergibody SAITAng-2-2 × DTN9VEGFR-2-3, peptide at C-terminal of heavy chain (protein, left off: a dimerising Fc or GST, fused protein synergibody SAITAng-2-2 × DTN9VEGFR-2-3, peptide at C-terminal of heavy chain) heavy (part 1 of 2): QVQLQQSGPELVKPGASVKMSCKASGYTFTDYVISWVKQRTGQGLEWIGEIYPGSGSTYYNEKFKGKASLTADKSSNTAYMQLSSLTSADSAVYFCVRSRGDYYAMDYWGQGTSVTVSS heavy (part 2 of 2): EAGAYWCKAWGLSPCLVT light: DIQMTQSPSSLSASLGGKVTITCKASQDINNYITWYQHKPGKGPRLLIHYTSTLQPGIPSRFSGSGSGRDYSFSISNLEPEDIATYYCLQYDNLLTFGGGTKLEIK | 6,244 ± 935 pixels |
| Syn-Ang-VEGFR-9: fused protein synergibody SAITAng-2-2 × DTN10VEGFR-2-4, peptide at C-terminal of heavy chain (protein, left off: a dimerising Fc or GST, fused protein synergibody SAITAng-2-2 × DTN10VEGFR-2-4, peptide at C-terminal of heavy chain) heavy (part 1 of 2): QVQLQQSGPELVKPGASVKMSCKASGYTFTDYVISWVKQRTGQGLEWIGEIYPGSGSTYYNEKFKGKASLTADKSSNTAYMQLSSLTSADSAVYFCVRSRGDYYAMDYWGQGTSVTVSS heavy (part 2 of 2): TGSGRMCDGSGPPTNCWFT light: DIQMTQSPSSLSASLGGKVTITCKASQDINNYITWYQHKPGKGPRLLIHYTSTLQPGIPSRFSGSGSGRDYSFSISNLEPEDIATYYCLQYDNLLTFGGGTKLEIK | 6,055 ± 779 pixels |
| Syn-Ang-VEGFR-10: fused protein synergibody SAITAng-2-2 × DTN11VEGFR-2-5, peptide at C-terminal of heavy chain (protein, left off: a dimerising Fc or GST, fused protein synergibody SAITAng-2-2 × DTN11VEGFR-2-5, peptide at C-terminal of heavy chain) heavy (part 1 of 2): QVQLQQSGPELVKPGASVKMSCKASGYTFTDYVISWVKQRTGQGLEWIGEIYPGSGSTYYNEKFKGKASLTADKSSNTAYMQLSSLTSADSAVYFCVRSRGDYYAMDYWGQGTSVTVSS heavy (part 2 of 2): PGSQGYCHLNMRYQWICDSE light: DIQMTQSPSSLSASLGGKVTITCKASQDINNYITWYQHKPGKGPRLLIHYTSTLQPGIPSRFSGSGSGRDYSFSISNLEPEDIATYYCLQYDNLLTFGGGTKLEIK | 5,898 ± 1,037 pixels |
